Results on two molecules are retold here after PMC7005279, “Cryo-EM study of an archaeal 30S initiation complex gives insights into evolution of translation initiation” (Communications Biology, 2020).

Experiment [1] addresses T1, ribosomal protein uS9 of the Pyrococcus abyssi 30S subunit (P. abyssi, UniProt Q9V195 1-135).
T1 construct: 30S ribosomal protein uS9 (S9), Pyrococcus abyssi; its C-terminal residue is printed as R135; Subunit of the native 30S; source: endogenous, in 30S subunits purified from P. abyssi
Description: cryo-EM structure; IC2 complex (Pa-30S:mRNA:aIF1A:aIF2:GDPNP:Met-tRNAi) purified on TALON by N-terminally tagged aIF2β and aIF2α; overall 3.2 Å, classes IC2A 4.2 Å and IC2B 3.3 Å; aIF1A and aIF2 placed by rigid body fitting. The conditions noted are these: both partners purified.

Experiment [2] addresses ribosomal protein uS11 of the Pyrococcus abyssi 30S subunit (P. abyssi, UniProt P62010 1-137). Described as above. The conditions noted are these: both partners purified.

T1 sequence (Q9V195 whole entry): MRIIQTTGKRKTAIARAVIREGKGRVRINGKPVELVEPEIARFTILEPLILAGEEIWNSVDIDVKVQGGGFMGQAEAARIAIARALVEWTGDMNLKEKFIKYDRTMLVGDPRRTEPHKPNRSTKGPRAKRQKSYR

B1: ribosomal protein uS19 of the Pyrococcus abyssi 30S subunit (natural protein)
chain: not shown
notes: 30S ribosomal protein uS19 (S19), Pyrococcus abyssi; Subunit of the native 30S; source: endogenous, in 30S subunits purified from P. abyssi
Regarding B1, in experiment [1], the binding result is recorded as “binds”.

B2: ribosomal protein uS7 of the Pyrococcus abyssi 30S subunit (natural protein)
chain: not shown
notes: Subunit of the native 30S; source: endogenous, in 30S subunits purified from P. abyssi
B2: the binding result in experiment [2] is reported as “binds”.
